For 27 molecules, EC50 and Kd results are on record in patent US20210017293 (published 2021).

Residue numbers refer to the chain shown, from its start. Names and notes keep the numbering of the source. Like-named read-outs stand apart in the source and are kept apart here.

Broadly, the EC50 is the concentration giving half of the maximal effect. Higher therefore signals weaker potency. In general, Kd refers to the free concentration of one partner at which half of the binding sites on the other are occupied at equilibrium, for simple one-to-one binding. Higher therefore signals weaker binding.

For test [1], the target named is T1, human TNFR1 (human, UniProt P19438).
T1 chain: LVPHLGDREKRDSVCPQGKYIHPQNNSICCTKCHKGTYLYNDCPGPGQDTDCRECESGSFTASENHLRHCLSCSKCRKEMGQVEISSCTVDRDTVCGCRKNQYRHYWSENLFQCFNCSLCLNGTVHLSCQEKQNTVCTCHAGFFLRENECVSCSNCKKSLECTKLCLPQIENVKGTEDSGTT
As to the kind of experiment: ELISA.

Test [2] concerns the target T1, human TNFR1. As to the kind of experiment: ELISA.
Test [3] deals with T1, human TNFR1. The test can be described thus: ELISA. For orientation: An ELISA detects its analyte on a solid surface through an enzyme-linked reagent.
Test [4] addresses T1, human TNFR1. The test can be described thus: SPR.
A further test has as its target DMS30038-R (DMS30051) (human). The test can be described thus: SPR 37C.

B1: DOM1H-131-206 C-terminal S deletion (antibody, V domains shown)
VH: EVQLLESGGGLVQPGGSLRLSCAASGFTFAHETMVWVRQAPGKGLEWVSHIPPDGQDPFYADSVKGRFTISRDNSKNTLYLQMNSLRAEDTAVYHCALLPKRGPWFDYWGQGTLVTVS
In the case of B1, the 50% effective concentration (EC50) with human TNFR1 [1] was 0.5 nM.

B2: DOM1H-131-206 P14A + C-terminal ASTKG (antibody, V domains shown)
VH: EVQLLESGGGLVQAGGSLRLSCAASGFTFAHETMVWVRQAPGKGLEWVSHIPPDGQDPFYADSVKGRFTISRDNSKNTLYLQMNSLRAEDTAVYHCALLPKRGPWFDYWGQGTLVTVSS
For B2, the EC50 stood at 4.64 nM with human TNFR1 [2] and 1.47 nM with human TNFR1 [1].

B3: DOM1H-131-206 P14K (antibody, V domains shown)
VH: B2 VH with A14K
With B3, in the test with human TNFR1 [1], the EC50 is 0.72 nM.

B4: DOM1H-131-206 K43A (antibody, V domains shown)
VH: B2 VH with A14P, K43A
Regarding B4, the midpoint of the response with human TNFR1 [3], the EC50, lay at 0.67 nM.

B5: DOM1H-131-206 P14E (antibody, V domains shown)
VH: B2 VH with A14E
Take B5: the EC50 in the test with human TNFR1 [1] came out at 0.64 nM.

B6: DOM1H-131-206 P14Q (antibody, V domains shown)
VH: B2 VH with A14Q
As to B6, the 50% effective concentration (EC50) with human TNFR1 [1] stood at 0.91 nM.

B7: DOM1H-131-206 P14K + C-terminal ASTKG (antibody, V domains shown)
VH: B2 VH with A14K
Molecule B7 showed an EC50 in the test with human TNFR1 [1] of 0.48 nM.

B8: DOM1H-131-206 L11A (antibody, V domains shown)
VH: B2 VH with L11A, A14P
In the case of B8, the concentration for a half-maximal effect (EC50) in the test with human TNFR1 [1] was found to be 0.51 nM.

B9: DOM1H-131-206 C-terminal ASTK (antibody, V domains shown)
VH: B2 VH with A14P
In the test with human TNFR1 [3], B9 had an EC50 of 1.59 nM.

B10: DOM1H-131-206 P14A + C-terminal A (antibody, V domains shown)
VH: B2 VH
Regarding B10, the half-maximal effective concentration (EC50) with human TNFR1 [2] came out at 2.22 nM; with human TNFR1 [1] it was 0.57 nM.

B11: DOM1H-131-206 P14Q + C-terminal A (antibody, V domains shown)
VH: B2 VH with A14Q
B11 returned an EC50 with human TNFR1 [1] of 0.46 nM.

B12: DOM1H-131-206 C-terminal A (antibody, V domains shown)
VH: B2 VH with A14P
In the case of B12, the concentration for a half-maximal effect (EC50) stood at 2.71 nM in the test with human TNFR1 [2] and 1.21 nM in the test with human TNFR1 [3]. Further, binding in the test with human TNFR1 [4] was put at a Kd of 0.0253 nM.

B13: DOM1H-131-206 P14T + C-terminal ASTKG (antibody, V domains shown)
VH: B2 VH with A14T
In turn, B13 had an EC50 with human TNFR1 [1] of 0.72 nM.

B14: DOM1H-131-206 C-terminal ASTKGP (antibody, V domains shown)
VH: B2 VH with A14P
Molecule B14 returned an EC50 with human TNFR1 [3] of 11.9 nM.

B15: DOM1H-131-206 P14K + C-terminal A (antibody, V domains shown)
VH: B2 VH with A14K
Turning to B15, the EC50 in the test with human TNFR1 [1] is 0.46 nM.

B16: DOM1H-131-206 (antibody, V domains shown)
VH: B2 VH with A14P
As for B16, the concentration giving a half-maximal response (EC50) with human TNFR1 [2] was determined as 1.97 nM; with human TNFR1 [1], 0.67 nM; in the test with human TNFR1 [3] it was 1.99 nM. This molecule also registered a Kd with human TNFR1 [4] of 0.0143 nM.

B17: DOM1H-131-206 P14Q + C-terminal ASTKG (antibody, V domains shown)
VH: B2 VH with A14Q
In the test with human TNFR1 [1], B17 gave an EC50 of 1.1 nM.

B18: DOM1H-131-206 Q13A (antibody, V domains shown)
VH: B2 VH with Q13A, A14P
Turning to B18, the half-maximal effective concentration (EC50) with human TNFR1 [3] amounted to 1.75 nM.

B19: DOM1H-131-206 P41A (antibody, V domains shown)
VH: B2 VH with A14P, P41A
On to B19, for which it took 0.59 nM to reach a half-maximal effect with human TNFR1 [3] (EC50).

B20: DOM1H-131-206 P14T + C-terminal A (antibody, V domains shown)
VH: B2 VH with A14T
B20: in the test with human TNFR1 [1], the response was half-maximal at 0.66 nM (EC50).

B21: DOM1H-131-206 C-terminal ASTKG (antibody, V domains shown)
VH: B2 VH with A14P
With B21, the figures for the EC50 in the test with human TNFR1 [2] and with human TNFR1 [3] were 1.9 nM and 1.11 nM, respectively.

B22: DOM1H-131-206 P14T (antibody, V domains shown)
VH: B2 VH with A14T
In turn, B22 displayed an EC50 in the test with human TNFR1 [1] of 0.77 nM.

B23: DOM1H-131-206 C-terminal AST (antibody, V domains shown)
VH: B2 VH with A14P
In the test with human TNFR1 [1], B23 yielded an EC50 of 1.99 nM.

B24: DOM1H-131-206 P14A (antibody, V domains shown)
VH: B2 VH
For the molecule B24, it took 1.22 nM to reach a half-maximal effect with human TNFR1 [3] (EC50).

B25: DOM1H-131-206 P14A, G44E (antibody, V domains shown)
VH: B2 VH with G44E
Consider B25, for which, in the test with human TNFR1 [3], the EC50 was 2.03 nM.

B26: DOM1H-131-206 G44E (antibody, V domains shown)
VH: B2 VH with A14P, G44E
For the molecule B26, in the test with human TNFR1 [3], the half-maximal effective concentration (EC50) was 0.86 nM.

B27: VEGF165 (protein)
chain: APMAEGGGQNHHEVVKFMDVYQRSYCHPIETLVDIFQEYPDEIEYIFKPSCVPLMRCGGCCNDEGLECVPTEESNITMQIMRIKPHQGQHIGEMSFLQHNKCECRPKKDRARQENPCGPCSERRKHLFVQDPQTCKCSCKNTDSRCKARQLELNERTCRCDKPRR
Molecule B27 displayed a Kd in the test with DMS30038-R (DMS30051) of 0.00431 pM.
